Source: publication PMC9019252

Tests used:
PABPC1 RRM2 = PABPC1 RRM2 (human, UniProt P11940 100-190); experiment: ITC
PABPC1 RRM2/3 = PABPC1 RRM2/3 (human, UniProt P11940 100-289); experiment: ITC
PABPC1 (full length) = PABPC1 (full length) (human, UniProt P11940 1-636); experiment: SPR
PABPC1 RRM1/2/3/4 = PABPC1 RRM1/2/3/4 (human, UniProt P11940 1-370); experiment: SPR
PABPC1 RRM3 = PABPC1 RRM3 (human, UniProt P11940 191-289); experiment: ITC
PABPC1 RRM1 = PABPC1 RRM1 (human, UniProt P11940 1-99); experiment: ITC
PABPC1 RRM4 = PABPC1 RRM4 (human, UniProt P11940 290-371); experiment: ITC
Sequence of PABPC1 RRM4 (P11940 290-371): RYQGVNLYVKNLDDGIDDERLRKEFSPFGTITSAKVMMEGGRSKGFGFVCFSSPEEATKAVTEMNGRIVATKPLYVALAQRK

Sequence of PABPC1 RRM2 (P11940 100-190): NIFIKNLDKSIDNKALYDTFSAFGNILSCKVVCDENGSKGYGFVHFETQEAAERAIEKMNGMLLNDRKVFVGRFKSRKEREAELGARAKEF
Sequence of PABPC1 RRM2/3 (P11940 100-289): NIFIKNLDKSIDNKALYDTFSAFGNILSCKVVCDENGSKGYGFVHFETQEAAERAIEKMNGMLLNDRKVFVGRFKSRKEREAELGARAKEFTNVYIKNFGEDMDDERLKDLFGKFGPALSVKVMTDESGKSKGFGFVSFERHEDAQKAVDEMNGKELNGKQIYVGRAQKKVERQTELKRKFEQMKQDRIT
Sequence of PABPC1 RRM1 (P11940 1-99): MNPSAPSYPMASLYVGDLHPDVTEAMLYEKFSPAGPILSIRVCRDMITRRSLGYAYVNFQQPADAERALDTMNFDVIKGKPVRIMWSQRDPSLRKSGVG
Sequence of PABPC1 RRM3 (P11940 191-289): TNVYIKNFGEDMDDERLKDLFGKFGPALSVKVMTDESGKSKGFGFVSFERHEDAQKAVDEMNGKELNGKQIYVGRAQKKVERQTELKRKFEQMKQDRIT
Sequence of PABPC1 (full length) (P11940 whole entry): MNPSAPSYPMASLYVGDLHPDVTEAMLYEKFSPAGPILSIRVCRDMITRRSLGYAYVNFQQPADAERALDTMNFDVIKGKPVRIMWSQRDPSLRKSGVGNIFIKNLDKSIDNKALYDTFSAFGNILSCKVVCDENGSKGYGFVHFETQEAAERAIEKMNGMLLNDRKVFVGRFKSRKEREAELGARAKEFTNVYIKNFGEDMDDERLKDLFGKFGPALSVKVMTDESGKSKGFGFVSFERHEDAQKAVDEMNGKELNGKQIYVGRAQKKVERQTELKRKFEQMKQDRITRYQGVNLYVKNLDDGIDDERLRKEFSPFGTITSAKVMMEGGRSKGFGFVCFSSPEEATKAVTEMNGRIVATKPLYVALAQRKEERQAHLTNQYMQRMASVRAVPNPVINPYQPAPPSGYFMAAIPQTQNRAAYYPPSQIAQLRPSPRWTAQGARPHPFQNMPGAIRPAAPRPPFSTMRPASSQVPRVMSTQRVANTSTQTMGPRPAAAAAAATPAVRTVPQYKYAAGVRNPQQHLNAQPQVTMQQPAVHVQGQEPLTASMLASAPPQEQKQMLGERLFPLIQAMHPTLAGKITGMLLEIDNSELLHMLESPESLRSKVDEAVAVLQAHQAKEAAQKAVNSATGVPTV
Sequence of PABPC1 RRM1/2/3/4 (P11940 1-370): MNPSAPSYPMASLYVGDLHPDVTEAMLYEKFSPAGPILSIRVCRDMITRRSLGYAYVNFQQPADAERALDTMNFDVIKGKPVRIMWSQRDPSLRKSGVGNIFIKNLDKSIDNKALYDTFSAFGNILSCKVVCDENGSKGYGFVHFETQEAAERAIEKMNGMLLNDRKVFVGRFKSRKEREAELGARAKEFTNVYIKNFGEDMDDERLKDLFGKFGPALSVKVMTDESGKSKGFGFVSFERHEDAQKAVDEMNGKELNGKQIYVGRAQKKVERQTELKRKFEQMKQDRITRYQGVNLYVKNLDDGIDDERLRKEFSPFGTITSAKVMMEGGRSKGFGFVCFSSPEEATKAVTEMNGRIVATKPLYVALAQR

Binder: AAAAAAAAAAAA (ssRNA) [A12]
- Kd (PABPC1 RRM2): 70 ± 3 µM
- Kd (PABPC1 RRM2/3): 0.0013 ± 0.0006 µM

Binder: AAAAAAAAAAAAAAAAAAAAAAAA (ssRNA) [A24]
- binding result (PABPC1 (full length)): binds
- binding result (PABPC1 RRM1/2/3/4): binds

Binder: AAAAAAA (ssRNA) [A7]
- Kd (PABPC1 RRM2): 200 ± 40 µM
- Kd (PABPC1 RRM3): 4.7 ± 0.3 µM
- Kd (PABPC1 RRM2/3): 0.71 ± 0.1 µM
- binding result (PABPC1 RRM1): no binding
- binding result (PABPC1 RRM4): no binding
